Results from patent US20200317803A1, “ANTI-CD73, ANTI-PD-L1 ANTIBODIES AND CHEMOTHERAPY FOR TREATING TUMORS” (MEDIMMUNE, LLC, priority 2019, published 2020).
Entries after “also recorded” stand apart in the source; their conditions may differ.

How the values were obtained:
EGFRm NSCLC = settings: ATLANTIC trial, comparison for EGFRm NSCLC; cited from earlier work
[1] = Phase 1 study, pharmacokinetics and immunogenicity of oleclumab; format: in vivo; settings: human
Method: (§1) Safety was assessed by the presence of adverse events (AEs), serious adverse events (SAEs), DLTs, and changes from baseline in laboratory parameters, vital signs, and electrocardiogram results. The endpoints for assessment of antitumor activity included objective response (OR), disease control (DC), duration of response (DoR), progression-free survival (PFS), and overall survival (OS). RECIST v1.1 was used for assessment of tumor response. Pharmacokinetic parameters included, but were not limited to, maximum observed concentration, area under the concentration time curve, clearance, and terminal half-life. The endpoints for assessment of immunogenicity of oleclumab and durvalumab included the number and percentage of subjects who developed detectable anti-drug antibodies and the endpoints for assessment of pharmacodynamic activity included assessment of target expression (e.g., CD73, PD-L1) in tumor biopsy specimens.
(§2) In the oleclumab monotherapy dose-escalation arm, sequential cohorts of 3 to 6 subjects each received 1 of 4 dose levels of oleclumab (5, 10, 20, or 40 mg/kg) via IV infusion Q2W unless the maximum tolerated dose (MTD) was reached before all dose-escalation cohorts were completed (FIG. 8). In the oleclumab/durvalumab combination therapy dose-escalation arm, sequential cohorts of 3 to 6 subjects each received 1 of 4 dose levels of oleclumab (5, 10, 20, or 40 mg/kg) and a single dose level of 10 mg/kg durvalumab via IV infusion Q2W, unless the MTD was reached before all dose-escalation cohorts were completed (FIG. 8). If the MTD of oleclumab was exceeded at the 5 mg/kg dose level in the monotherapy or combination therapy arm, a lower dose level of 2 mg/kg oleclumab was explored in that arm.
The following PK data is based on a total of 97 subjects following treatment with oleclumab 5 to 40 mg/kg Q2W administered either as monotherapy (n=40) or in combination with durvalumab at 10 mg/kg Q2W (n=57). […] Serum exposures were similar when oleclumab was administered either alone or in combination with durvalumab.

[2] = GLP 5-week repeat IV bolus dose toxicity study in CD-1 mice; format: in vivo
Method: (§3) Mouse and cynomolgus monkey were selected as pharmacologically relevant species for evaluation of the toxicity of oleclumab. […] Systemic and local toxicities of oleclumab were evaluated in Good Laboratory Practice (GLP) toxicity studies in CD-1 mice (5-week, repeat intravenous [IV] bolus dose, once every 4 days, total 9 doses) at 0 mg/kg, 100 mg/kg or 200 mg/kg and cynomolgus monkeys (5-week, repeat IV 30-minute infusion dose, once weekly, total 5 doses) at 0 mg/kg, 30.5 mg/kg, 103.7 or 300.7 mg/kg.

[3] = tested on: exogenous antigen (KLH) response; assay: single dose cynomolgus monkey study: exogenous antigen (KLH) response; format: in vivo, cynomolgus monkeys; settings: single IV 1, 10 or 107.8 mg/kg
Method: (§4) Five male cynomolgus monkeys were administered a single IV bolus dose of oleclumab at a dose of 0 mg/kg, 1 mg/kg, 10 mg/kg or 107.8 mg/kg. Serum was collected prior to the first dose at 0.08, 0.5, 2, 8 and 24 hours and 2, 3, 5, 7, 10, 14, 21, 28 and 35 days post dosing.
To determine immune modulation, the exogenous antigen (KLH) response was measured. The exogenous antigen (KLH) response was determined by first immunizing the monkeys on day 1 with adjuvant free KLH. KLH T cell-dependent antibody response (TDAR) was conducted on days 7, 8, 11, 15, 22, 29, and 36. Ex vivo KLH stimulation of PBMC IFN-γ and IL-2 ELISPOT was determined on days 1, 4, 8, 7, 15, and 22.

[4] = tested on: blood or peripheral blood mononuclear cell from healthy donors; assay: human in vitro cytokine release assays; format: cell-based; settings: in solution or immobilized on plastic wells by dry-coating
Method: The ability of oleclumab (alone or in combination with durvalumab) to induce cytokine release was evaluated in human in vitro assays using blood or peripheral blood mononuclear cell from healthy donors.

CD73 [5] = molecular target: T1, CD73 (Homo sapiens, UniProt P21589); assay: Phase 1 study, pharmacodynamics (soluble, T cell and tumor CD73); format: in vivo; settings: for CD73 surface expression on peripheral T cells (MFI, percent CD73+ CD4 and CD8 cells): human
T1 construct: from tissue; host or cells: patients' serum, peripheral T cells and tumour biopsies
T1 sequence (P21589 27-549): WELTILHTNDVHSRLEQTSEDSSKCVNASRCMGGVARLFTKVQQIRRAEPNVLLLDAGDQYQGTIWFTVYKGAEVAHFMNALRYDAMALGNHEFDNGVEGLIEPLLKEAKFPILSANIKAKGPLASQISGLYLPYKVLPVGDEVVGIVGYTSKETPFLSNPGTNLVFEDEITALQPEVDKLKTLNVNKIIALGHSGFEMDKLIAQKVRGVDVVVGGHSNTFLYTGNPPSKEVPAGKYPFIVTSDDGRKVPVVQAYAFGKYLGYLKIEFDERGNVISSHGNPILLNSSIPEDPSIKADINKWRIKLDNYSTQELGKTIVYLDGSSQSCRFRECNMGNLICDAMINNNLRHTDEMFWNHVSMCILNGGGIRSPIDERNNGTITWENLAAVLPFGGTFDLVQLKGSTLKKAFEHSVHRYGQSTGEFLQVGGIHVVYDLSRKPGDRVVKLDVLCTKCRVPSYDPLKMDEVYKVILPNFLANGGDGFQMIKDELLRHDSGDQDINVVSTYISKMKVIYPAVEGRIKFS
Method: as §1, §2

[6] = tested on: endogenous pathogen response (EBV, CMV); assay: single dose cynomolgus monkey study: endogenous pathogen response; format: in vivo, cynomolgus monkeys; settings: single IV 1, 10 or 107.8 mg/kg
Method: as §4
The endogenous pathogen response was also investigated by endogenous pathogen verification. Endogenous pathogen antibodies were measured using chemiluminescent ELISA on days 1, 8, 14, 15, and 29 and endogenous pathogen T cell IFN-γ ELISPOT was measured on days −14 and 29. LCV (monkey homologue of EBV) was detectable at low levels in most cynomolgus monkeys (FIG. 4).

CD73 [7] = molecular target: T1, CD73; assay: pharmacokinetic/pharmacodynamic model and human dose prediction; settings: determined from tumor suppression data in syngeneic mice
Source text: A two-compartment model with linear and target-mediated drug disposition clearance was used to adequately describe the MEDI9447 serum concentration profiles. This model was used to describe the monkey pharmacokinetic data and then resulting parameters were allometrically scaled to humans to predict doses using simulation. (See Example 2.)
FIGS. 6A and 6B show cynomolgus pharmacokinetic modeling and human dose prediction. Cynomolgus serum MEDI9447 concentration profiles (FIG. 6A) were described adequately all three different dose levels by a non-linear model shown schematically in (FIG. 5). Following allometric scaling of the pharmacokinetics parameters from this model, human serum concentration profiles were simulated (FIG. 6B). […] (See Example 2.)
Oleclumab dose selection was based on nonclinical data and clinical safety margins based on nonclinical safety data as described above for mice and monkeys. The pharmacologically driven starting dose level of 5 mg/kg oleclumab was anticipated to have 98% to 91% saturation of CD73 in the first dosing interval (peak and trough, respectively). […] The dose-escalation scheme in this study was designed to achieve higher and more sustained suppression of CD73 target, while maintaining adequate safety margins. […]

[8] = GLP 5-week repeat IV infusion toxicity study in cynomolgus monkeys; format: in vivo
Method: as §3

[9] = cynomolgus monkey, in vivo, 300.7 mg/kg

durvalumab: antibody that selectively binds PD-L1 and blocks the binding of PD-L1 to the PD-1 and CD80 receptors
ORR, durvalumab monotherapy (EGFRm NSCLC): 9.8%

oleclumab: human immunoglobulin G1 lambda mAb that selectively binds to and inhibits the ectonucleotidase activity of CD73; VL SEQ ID NO: 1, VH SEQ ID NO: 2
anti-drug antibodies (ADAs) [1]: No ADAs were detected
estimated effective half-life in the dosing duration [1]: ~13 days
serum concentration expected to saturate >99% CD73 [1]: above 40 μg/mL
serum exposures alone versus in combination with durvalumab ([1]; 5 to 40 mg/kg Q2W): similar
increase of Ctrough with dose ([1]; from oleclumab 5 to 10 mg/kg): more than proportional
increase of Ctrough with dose ([1]; from oleclumab 10 to 40 mg/kg): approximately dose proportional
PK linearity at lowest dose ([1]; oleclumab 5 mg/kg Q2W, monotherapy and combination cohorts): nonlinear PK
PK linearity at higher doses ([1]; oleclumab 10 mg/kg and higher Q2W): Linear PK
no-observed-adverse-effect level (NOAEL) ([2]; CD-1 mice, highest dose tested): 200 mg/kg/dose
AUC0-96hr ([2]; mouse, in vivo, 200 mg/kg): 229,000 μg·hr/mL
Cmax ([2]; mouse, in vivo, 200 mg/kg): 6,200 μg/mL
T cell responses to ex vivo KLH stimulation (IFN-γ, IL-2 ELISPOT of PBMC) [3]: did not vary with oleclumab treatment; also recorded: did not increase
anti-KLH IgM and IgG antibody responses (KLH TDAR) [3]: did not show dose-dependent increase; also recorded: did not enhance
responses to exogenous antigen (KLH) [3]: did not enhance responses
cytokine release [4]: did not induce cytokine release
tissue cross reactivity staining (human tissue panel): staining with oleclumab was observed in multiple cell types
CD73 staining tumor cells by IHC (CD73 [5]; 40 mg/kg dose, 20 days after treatment initiation): decrease in CD73 staining tumor cells
total CD4 and CD8 cells (CD73 [5]; human peripheral blood, across all doses): without a concomitant decrease
CD73 enzymatic activity in tumor microenvironment (CD73 [5]; human tumor staining): inhibited CD73 enzymatic activity
CD73 surface expression on peripheral T cells (MFI, percent CD73+ CD4 and CD8 cells) (CD73 [5]; across all doses): decreased CD73 on peripheral T cells
CD73 surface expression on peripheral T cells (MFI, percent CD73+ CD4 and CD8 cells) (CD73 [5]; across all doses, listed as Oleclumab): decreased CD73 surface expression
free serum soluble CD73 levels (CD73 [5]; majority of subjects at all times after the first dose, limit of detection): < 0.25 ng/mL
patients with decreased tumoral CD73 expression (CD73 [5]; oleclumab alone, patients who expressed >5% 2+/3+ CD73 at baseline): 5/9
CD8+ TILs (CD73 [5]; samples with decreased tumoral CD73): increasing CD8+ TILs in all 5 samples
IgG titers to EBV gp125 and CMV gB [6]: did not vary with oleclumab treatment
T cell responses to EBV BZLF1 and inactivated human CMV [6]: did not vary consistently with oleclumab treatment
serum exposure target (CD73 [7]): 52 µg/mL
effects on safety pharmacology endpoints (ECGs, blood pressure, behavioral examinations) ([8]; cynomolgus monkey, in vivo): no oleclumab-related effects
AUC0-168.5hr [8, 9]: 834,000 μg·hr/mL
Cmax [8, 9]: 11,000 μg/mL
no-observed-adverse-effect level (NOAEL) ([8]; cynomolgus monkeys, highest dose tested): 300.7 mg/kg/dose
